{"source": "patent US20020106678A1", "about": "(published 2002)", "binders": {"B1": {"name": "human G protein γ4 subunit (other)", "chain": "MKEGMSNNSTTSISQARKAVEQLKMEACMDRVKVSQAAADLLAYCEAHVREDPLIIPVPASENPFREKKFFCTIL", "modifications": "modified by a geranylgeranyl group (residue not stated)"}, "B2": {"name": "human G protein γ11 subunit (other)", "chain": "MPALHIEDLPEKEKLKMEVEQLRKEVKLQRQQVSKCSEEIKNYIEERSGEDPLVKGIPEDKNPFKEKGSCVIS", "modifications": "modified by a farnesyl group (residue not stated)"}}, "key": {"[1]": {"target": "T1, human G protein β2 subunit (human, UniProt P62879 1-340)", "T1 sequence (P62879 whole entry)": "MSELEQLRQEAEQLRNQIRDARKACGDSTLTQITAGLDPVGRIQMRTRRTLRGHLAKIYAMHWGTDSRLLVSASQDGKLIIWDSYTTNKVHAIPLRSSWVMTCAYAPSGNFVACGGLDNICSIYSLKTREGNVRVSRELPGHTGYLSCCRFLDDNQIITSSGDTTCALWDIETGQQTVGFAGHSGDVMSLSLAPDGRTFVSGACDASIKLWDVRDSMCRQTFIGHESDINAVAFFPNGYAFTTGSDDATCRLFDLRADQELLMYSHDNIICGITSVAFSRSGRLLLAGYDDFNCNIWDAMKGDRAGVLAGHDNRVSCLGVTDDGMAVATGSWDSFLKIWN", "test": "tryptic proteolysis protection assay of co-translated β and γ subunits (βγ dimer formation)", "method": "(§1) βγ interaction was assessed by a tryptic proteolysis assay. Plasmid DNA (1 μg) for each of the β and γ subunits were co-transcribed and co-translated in the TNT-coupled rabbit reticulocyte lysate system (Promega, Madison, Wis.). The plasmid DNA for each of the γ subunits was linearized to limit the generation of translated products of higher molecular weight. […] To increase levels of the γ₁₀ and γ₁₁ subunits 2 μg of capped RNA were added to the co-transcribed β-γ mix. Alternatively, γ₁₀ and γ₁₁ subunits that had been translated separately were added to the co-translated β-γ mix. For tryptic digestion, 5 or 10 μl aliquots of the co-translated β-γ mix were digested by addition of 1 μl trypsin (1 μg) in a final volume of 20 μl (with 50 mM Na-HEPES, pH 8.0) After incubation for 1 hour at 30° C., the digestions were stopped by addition of Laemmli sample buffer and boiling for 3 minutes. Protected fragments of β were visualized by running samples on 15% SDS-PAGE gels. After electrophoresis, gels were fixed in 40% methanol/10% acetic acid mix, soaked in ENHANCE (DuPont-NEN, Boston, Mass.), and dried. The dried gels were exposed for 8 to 48 hours at −80° C."}, "[2]": {"target": "T1, human G protein β2 subunit", "test": "tryptic proteolysis protection assay of co-translated β and γ subunits (rabbit reticulocyte lysate, SDS-PAGE)", "method": "as §1"}}, "data": [{"binder": "B1", "values": [{"measurement": "binding result", "setting": "[1]", "result": "binds"}]}, {"binder": "B2", "values": [{"measurement": "binding result", "setting": "[2]", "result": "no binding"}]}]}
